# Data: US20240124575A1 (SIMCERE ZAIMING PHARMACEUTICAL, published 2024)
# What was measured:
# [1] = molecular target: T1, human CD33-His (extracellular domain Asp 18-His 259) (human, UniProt P20138 18-259); experiment: ELISA, antigen coated
# T1 construct: range 18-259; bought protein; also called hCD33-his; human CD33 protein; not shown: His tag
# Experimental: In order to assay the binding activity of VHH-Fc to human CD33 protein, a human CD33-his protein (purchased from ACROBiosystems, Cat. No. CD3-H5226) was diluted with PBS to make a final concentration of 2 μg/mL, and then added into a 96-well ELISA plate at 100 μL/well. The plate was sealed with a plastic film and incubated at 4° C. overnight, washed twice with PBS the next day, and a blocking solution [PBS+2% (w/w) BSA] was added for blocking at room temperature for 2 h. The blocking solution was discarded, and VHH-Fc antibody or negative control antibody serially diluted from 100 nM was added at 50 μL/well. After incubation at 37° C. for 2 h, the plate was washed 3 times with PBS. A secondary antibody labeled with HRP (horseradish peroxidase) (purchased from Sigma, Cat. No. A0170) was added. After incubation for 1 h at 37° C., the plate was washed 5 times with PBS. A TMB substrate was added at 50 μL/well. After incubation at room temperature for 10 min, a stop solution (1.0 N HCl) was added at 50 μL/well. The OD450 nm values were read on an ELISA plate reader (Multimode Plate Reader, EnSight, purchased from Perkin Elmer). The assay results for the binding of the VHH-Fc to hCD33-his by ELISA are shown in FIGS. 7A and 7B and Tables 11 and 12. […] The IgG control was hIgG1, and the data in the table are OD450 nm values.
# [2] = molecular target: T1, human CD33-His (extracellular domain …); experiment: competitive ELISA vs coated S006-NB146-20 2ug/mL; soluble 25ug/ml
# Experimental: VHH antibodies and control antibodies with known epitopes were subjected to epitope classification with competitive ELISA. ELISA plates were coated with 2 μg/mL antibodies according to the method in Example 5.1; the human CD33-his protein was subjected to a gradient dilution from 30 μg/mL, and EC80 values (Tables 26-27) were calculated. ELISA plates were coated with 2 μg/mL antibodies; after 25 µg/mL of antibodies to be tested were added, a human CD33-his protein having an EC80 concentration corresponding to each of the antibodies to be tested was then added for incubation for 2 h. The plates were washed 5 times with PBS, then HRP-labeled anti-His antibodies (purchased from GenScript, Cat. No. A00612) were added for incubation for 1 h, and the plates were washed 5 times. A TMB substrate was added at 50 μL/well and incubated at room temperature for 10 min, then a stop solution (1.0 M HCl) was added at 50 μL/well. OD_{450 nm} values were read using an ELISA plate reader (Insight, purchased from PerkinElmer), and the competition rate between the antibodies was calculated according to the OD_{450 nm} values using a formula. The results are shown in FIGS. 12A-12B, the higher the value of the competition rate, the closer the epitopes to which two antibodies bind.
# [3] = molecular target: T2, human CD33 on CHO-K1 cells (CHO-K1-human CD33) (human, UniProt P20138 18-364); experiment: FACS, CHO-K1-human CD33 cells
# T2 construct: whole, on cells; stably transfected CHO-K1 clones; also called CHO-K1-hCD33-B8; CHO-K1-human CD33 B8
# Experimental: The desired cells were expanded to a logarithmic growth phase in a T-75 cell culture flask. For adherent cells CHO-K1, the culture medium was removed by pipetting, and the cells were washed twice with a PBS buffer, digested with trypsin, and washed twice with a PBS buffer again after the digestion was stopped. For suspension cells U937, the medium supernatant was discarded by direct centrifugation, and the cell pellet was washed twice with PBS, and then incubated with a buffer containing human Fc Block (purchased from BD, Cat. No. 564220) for 15 min. After the cells obtained in the last step were subjected to cell counting, the cell pellet was resuspended to 2×10⁶ cells/mL with a blocking solution [PBS+2% (w/w) BSA] and added to a 96-well FACS reaction plate at 50 μL/well. The VHH-Fc antibody (a sample to be tested) was added at 50 μL/well, and the plate was incubated on ice for 2 h. […] After the plate was centrifuged and washed 5 times with a PBS buffer, the results were assayed and analyzed by FACS (FACS Canto™, purchased from BD Biosciences), so as to obtain the mean fluorescence intensity (MFI) of cells. Then, analysis was performed by software (GraphPad Prism8), data were fitted, and EC50 values were calculated.
# human CD33-his protein [4] = molecular target: T3, human CD33-his protein (human, UniProt P20138 18-259); experiment: competition ELISA, coated human CD33-his, vs Biotin-C33B904 at EC80; antibody 0 nM (no competitor)
# T3 construct: range 18-259; bought protein; also called hCD33-his; recombinant human CD33-his; not shown: His tag
# Experimental: (§1) ELISA plates were coated with 2 μg/mL human CD33-his protein according to the method in Example 5.1; the Biotin-C331B904 antibody was subjected to a gradient dilution from 15 μg/mL, and EC80 values (0.18 μg/mL) were calculated. ELISA plates were coated with 2 μg/mL human CD33-his protein; starting from 40 μg/mL, the VHH antibodies to be tested were diluted in a 1:2 dilution ratio to obtain seven concentrations and added to the ELISA plates, and then Biotin-C331904 antibodies with the EC80 concentrations were added for incubation for 2 h. The plates were washed 5 times with PBS and then […] (purchased from Sigma, Cat. No. S2438) were added for incubation for 1 h, and the plates were washed 5 times. A TMB substrate was added at 50 μL/well and incubated at room temperature for 10 min, then a stop solution (1.0 M HCl) was added at 50 μL/well. OD_{450 nm} values were read using an ELISA plate reader (Insight, purchased from PerkinElmer). Then, analysis was performed by software (GraphPad Prism8), and data were fitted for curve plotting. The results are shown in FIGS. 13A-13B and Tables 28 and 29.
# human CD33-his protein [5] = molecular target: T3, human CD33-his protein; experiment: competition ELISA, coated human CD33-his, vs Biotin-C33B904 at EC80; antibody 250.00 nM
# Experimental: as §1
# T1 sequence (P20138 18-259 limits assumed): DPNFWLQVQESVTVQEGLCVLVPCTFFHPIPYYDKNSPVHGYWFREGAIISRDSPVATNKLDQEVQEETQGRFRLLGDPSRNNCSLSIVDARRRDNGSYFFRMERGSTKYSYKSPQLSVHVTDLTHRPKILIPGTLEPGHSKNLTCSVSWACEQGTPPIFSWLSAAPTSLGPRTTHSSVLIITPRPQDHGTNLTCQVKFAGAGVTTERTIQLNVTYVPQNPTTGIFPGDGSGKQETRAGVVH
# T2 sequence (P20138 18-364): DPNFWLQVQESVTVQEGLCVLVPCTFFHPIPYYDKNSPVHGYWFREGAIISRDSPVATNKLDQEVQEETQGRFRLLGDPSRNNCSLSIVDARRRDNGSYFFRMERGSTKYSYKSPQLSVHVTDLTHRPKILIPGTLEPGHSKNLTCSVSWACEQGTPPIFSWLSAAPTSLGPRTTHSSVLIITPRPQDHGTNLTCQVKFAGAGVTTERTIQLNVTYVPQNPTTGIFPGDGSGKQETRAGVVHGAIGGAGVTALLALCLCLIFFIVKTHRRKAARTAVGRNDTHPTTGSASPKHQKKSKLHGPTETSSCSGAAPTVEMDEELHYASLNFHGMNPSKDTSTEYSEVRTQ
# T3 sequence (P20138 18-259 limits assumed): as the sequence (P20138 18-259 limits assumed) above
Binder,OD450 at 0.0001 nM [1],OD450 at 0.001 nM [1],OD450 at 0.01 nM [1],OD450 at 0.1 nM [1],OD450 at 1 nM [1],OD450 at 10 nM [1],OD450 at 100 nM [1],inhibition rate [2],EC50 [3],Max MFI [3],OD450 (Biotin-C33B904 signal) (human CD33-his protein [4]),OD450 (Biotin-C33B904 signal) (human CD33-his protein [5])
"C33B904 hIgG1 (antibody, V domains shown, intact human IgG1; variable regions from US20190382481A1; also called C33B3904; C331B904) VH: EVQLVESGGGLVQPGRSLRLSCAASGFTFDDYAMHWVRQAPGKGLEWVSGIGWSGGSIVYADSVKGRFTISRDNAKNSLYLQMNSLRAEDTALYYCAKDSPYGDFFDYWGQGTLVTVSS VL: DIVMTQSPDSLAVSLGERATINCKSSQTVFYSSNNKNYLAWYQQKPGQPPKLLISWASTRKSGVPDRFSGSGSGTDFTLTVSSLQAEDVAVYYCQHYYSTPYTFGQGTKLEIKR",0.04 OD450,0.06 OD450,0.08 OD450,0.28 OD450,1.39 OD450,2.6 OD450,2.96 OD450,100%,12.5 nM,15000 MFI,,
"C33B904 (antibody, human IgG1, kappa, V domains shown, control antibody, intact human IgG1 form; variable regions from US20190382481A1; also called C33B904 hIgG1; C331B904) VH: EVQLVESGGGLVQPGRSLRLSCAASGFTFDDYAMHWVRQAPGKGLEWVSGIGWSGGSIVYADSVKGRFTISRDNAKNSLYLQMNSLRAEDTALYYCAKDSPYGDFFDYWGQGTLVTVSS VL: DIVMTQSPDSLAVSLGERATINCKSSQTVFYSSNNKNYLAWYQQKPGQPPKLLISWASTRKSGVPDRFSGSGSGTDFTLTVSSLQAEDVAVYYCQHYYSTPYTFGQGTKLEIKR",,,,,,,,,,,2.33,0.1
